No end group written: not given here.
Experiments:
[1] = molecular target: IGS4A (IGS4APROT), human G-protein coupled receptor IGS4, polymorphic form A (human, UniProt Q9GZQ4 4-415); experiment: cell-based or functional assay
[2] = molecular target: T1, IGS4B (IGS4BPROT), human G-protein coupled receptor IGS4, polymorphic form B (human, UniProt Q9GZQ4 4-415); experiment: cell-based or functional assay
T1 chain: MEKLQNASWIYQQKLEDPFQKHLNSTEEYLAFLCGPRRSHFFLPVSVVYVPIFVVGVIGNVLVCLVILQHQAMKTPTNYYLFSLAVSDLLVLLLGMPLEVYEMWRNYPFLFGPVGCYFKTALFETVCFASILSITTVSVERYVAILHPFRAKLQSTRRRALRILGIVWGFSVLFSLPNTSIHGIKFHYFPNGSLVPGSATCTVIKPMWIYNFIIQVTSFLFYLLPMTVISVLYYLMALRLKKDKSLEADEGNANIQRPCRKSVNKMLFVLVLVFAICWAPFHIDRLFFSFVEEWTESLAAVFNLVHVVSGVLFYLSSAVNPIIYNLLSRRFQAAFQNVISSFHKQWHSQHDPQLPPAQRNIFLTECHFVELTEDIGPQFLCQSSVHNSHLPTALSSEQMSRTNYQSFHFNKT

B1: rat Neuromedin U-23 (peptide, UniProt P12760 144-166, looked up)
peptide: YKVNEYQGPVAPSGGFFLFRPRN-NH2
EC50, calcium mobilisation (FLIPR) [1]: 53 nM
log EC50, calcium mobilisation (FLIPR) [1]: -7.27 log M
EC50, calcium mobilisation (FLIPR) [2]: 0.05 nM
LogEC50, calcium mobilisation (FLIPR) [2]: -10.6 log M
